For experiment [1], the target named is T1, Marmoset Type II GnRH receptor (marmoset).
T1 chain: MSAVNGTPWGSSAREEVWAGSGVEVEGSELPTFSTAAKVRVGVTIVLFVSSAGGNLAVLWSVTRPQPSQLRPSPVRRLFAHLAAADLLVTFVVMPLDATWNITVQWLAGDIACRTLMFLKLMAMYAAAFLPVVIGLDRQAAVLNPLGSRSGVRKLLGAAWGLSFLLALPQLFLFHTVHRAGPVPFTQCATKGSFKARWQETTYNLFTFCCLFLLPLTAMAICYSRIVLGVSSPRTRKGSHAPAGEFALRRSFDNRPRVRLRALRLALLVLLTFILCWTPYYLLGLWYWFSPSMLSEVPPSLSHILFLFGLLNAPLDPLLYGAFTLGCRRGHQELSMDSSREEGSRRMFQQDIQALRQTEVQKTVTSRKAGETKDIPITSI
The experiment in a line: cell-based or functional assay.

For experiment [2], the target named is T1, Marmoset Type II GnRH receptor. The experiment in a line: cell-based or functional assay.
In experiment [3] the target is T2, human Type I GnRH receptor (human, UniProt P30968 1-328).
T2 sequence (looked up): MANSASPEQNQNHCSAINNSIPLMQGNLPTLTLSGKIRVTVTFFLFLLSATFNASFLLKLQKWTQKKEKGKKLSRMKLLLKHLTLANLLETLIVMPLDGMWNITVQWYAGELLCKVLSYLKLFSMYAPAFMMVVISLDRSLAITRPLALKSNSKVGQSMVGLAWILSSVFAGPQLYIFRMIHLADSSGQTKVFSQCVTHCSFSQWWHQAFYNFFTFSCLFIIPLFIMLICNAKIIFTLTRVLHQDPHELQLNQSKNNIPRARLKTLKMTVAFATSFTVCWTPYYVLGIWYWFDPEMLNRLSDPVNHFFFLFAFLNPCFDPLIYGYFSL
The experiment in a line: cell-based or functional assay.

The target in experiment [4] is T1, Marmoset Type II GnRH receptor. The experiment in a line: receptor binding assay on COS-7 cells; reference mammalian GnRH I.
The target is the same in experiment [5]. The experiment in a line: receptor binding assay on COS-7 cells; reference human Type I GnRH receptor.
Experiment [6] has the same target. The experiment in a line: competition with ^125I-[His^5-D-Tyr^6]GnRH I on COS-7 cells expressing the receptor (n = 3-6).
The target of experiment [7] is T2, human Type I GnRH receptor. Described as above.
Experiment [8] addresses T1, Marmoset Type II GnRH receptor. In words: competition with ^125I-[His^5,D-Tyr^6]GnRH on COS-7 cells expressing marmoset Type II GnRH-R (FIG. 4, n=2).
Experiment [9] concerns the target T3, Marmoset Type II GnRH receptor (marmoset).
T3 chain: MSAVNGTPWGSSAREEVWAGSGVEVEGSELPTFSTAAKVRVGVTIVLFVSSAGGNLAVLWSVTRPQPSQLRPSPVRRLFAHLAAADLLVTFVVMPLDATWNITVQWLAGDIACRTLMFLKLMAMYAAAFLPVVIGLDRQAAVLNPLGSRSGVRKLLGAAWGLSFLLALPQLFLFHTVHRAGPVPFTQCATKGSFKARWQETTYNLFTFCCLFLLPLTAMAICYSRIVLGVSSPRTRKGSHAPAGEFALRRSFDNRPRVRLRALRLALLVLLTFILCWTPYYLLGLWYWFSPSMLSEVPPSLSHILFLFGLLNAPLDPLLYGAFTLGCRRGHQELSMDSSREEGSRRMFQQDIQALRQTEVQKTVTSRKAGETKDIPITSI
In words: cell-based or functional assay.

Experiment [10] addresses T3, Marmoset Type II GnRH receptor …. In words: competition with ^125I-[His^5-D-Tyr^6]GnRH I on COS-7 cells expressing the receptor (n = 3-6).
Experiment [11] has the same target. In words: competition with ^125I-[His^5,D-Tyr^6]GnRH on COS-7 cells expressing marmoset Type II GnRH-R (FIG. 4, n=2).
In experiment [12] the target is T4, human Type I GnRH receptor (human), P30968.
T4 chain: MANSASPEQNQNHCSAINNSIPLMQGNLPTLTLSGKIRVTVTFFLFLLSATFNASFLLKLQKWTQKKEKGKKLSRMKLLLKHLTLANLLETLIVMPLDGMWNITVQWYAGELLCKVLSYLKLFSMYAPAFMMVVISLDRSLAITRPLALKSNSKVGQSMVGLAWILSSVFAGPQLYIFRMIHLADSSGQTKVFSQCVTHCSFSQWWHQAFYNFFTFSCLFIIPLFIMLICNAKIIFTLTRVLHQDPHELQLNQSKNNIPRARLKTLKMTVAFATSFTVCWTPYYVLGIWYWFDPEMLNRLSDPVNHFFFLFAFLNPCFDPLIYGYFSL
In words: cell-based or functional assay.

Experiment [13] deals with T4, human Type I GnRH receptor (human), …. In words: competition with ^125I-[His^5-D-Tyr^6]GnRH I on COS-7 cells expressing the receptor (n = 3-6).

Read-outs that look alike come from different tables or passages of the source. Square brackets hold non-standard residues; d marks the D form. Ends that are not written are not given here.

B1: GnRH II (peptide, UniProt O43555 24-33, looked up)
peptide: QHWSHGWYPG
modifications: ends and bridges not checked
notes: mature; also called GnRH Type II; Type II GnRH
As to B1, the “stimulation of inositol phosphate production, fold greater activity relative to mammalian GnRH I” value in experiment [1] was found to be 90 fold. The “total inositol phosphate production (EC50)” value in experiment [1] was 0.46 nM. The entries for the “InsP production (EC50)” value in [2] and in experiment [3] were 0.45 nM and 7.41 nM, respectively. Moreover, the “fold greater activity relative to mammalian GnRH I” value in experiment [4] came out at 40 fold. The “fold greater affinity than for the Type I receptor” value in experiment [5] turned out to be 24 fold. The figures for the IC50 in [6], in experiment [7] and in experiment [8] were 1.07 nM, 26.1 nM and 1.3 nM, respectively.

B2: [D-Arg^6]GnRH II (peptide, UniProt O43555 24-33, looked up)
peptide: QHWSH[dR]WYPG
modifications: ends and bridges not checked
notes: mature; Synthetic analogue of GnRH II; also called [D-Arg^6]GnRH Type II
For the molecule B2, the “total inositol phosphate production (EC50)” value in experiment [1] turned out to be 1.1 nM. The “InsP production (EC50)” value came to 2.39 nM in experiment [2] and 3.8 nM in [3]. The molecule also showed an IC50 in [6] of 3.34 nM.

With QHWSYGLRPG (peptide, UniProt P01148 24-33, looked up, modifications not checked) [Mammalian GnRH I, P01148 24-33], the InsP production (EC50) in experiment [9] is 40.5 nM. In addition, the total inositol phosphate production (EC50) in experiment [9] came out at 33.2 nM. Also, the values for the IC50 in experiment [10] and in experiment [11] were 42.6 nM and 51.7 nM, respectively.

Turning to QHWSYGWLPG (peptide, UniProt P01148 24-33, looked up, modifications not checked) [salmon GnRH, P01148 24-33], the InsP production (EC50) came out at 5.99 nM in experiment [9] and 9.62 nM in experiment [12]. The molecule also gave a total inositol phosphate production (EC50) in experiment [9] of 8.7 nM. Also, the 50% inhibitory concentration (IC50) was found to be 9.48 nM in experiment [10], 244 nM in [13] and 9.8 nM in [11].

The values above are taken from patent publication US20030124585A1, “Type II gonadotropin-releasing hormone receptor and polynucleotides encoding therefor” (Medical Research Council, priority 2000, published 2003).
